{
  "source": "paper PMC2279300",
  "key": {"[1]": {"target": "biotinylated oligopeptide spanning one repeat unit of the TARP phosphodomain, first tyrosine phosphorylated (pY1) (Chlamydia trachomatis serovar L2)", "sequence (Q6GX35 174-222)": "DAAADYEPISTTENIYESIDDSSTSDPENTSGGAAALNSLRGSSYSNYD"}, "[2]": {"target": "biotinylated oligopeptide spanning one repeat unit of the TARP phosphodomain, second tyrosine phosphorylated (pY2) (Chlamydia trachomatis serovar L2)", "sequence (Q6GX35 174-222)": "as above"}},
  "data": [
    {"substance": "Sos1 (from UniProt Q07889 1-1333) (natural protein)", "values": [
      {"measurement": "guanine nucleotide exchange activity towards His-Rac1 of the pY1 oligopeptide precipitate from regular HeLa lysate (32P label retained on filters)", "setting": "[1]", "value": 31000, "unit": "CPM"}
    ]},
    {"substance": "Vav2 (from UniProt P52735 1-878) (natural protein)", "values": [
      {"measurement": "guanine nucleotide exchange activity towards His-Cdc42 of the pY2 oligopeptide precipitate from lysate supplemented with PI 3,4,5-P3 (32P label retained on filters)", "setting": "[2]", "value": 23000, "unit": "CPM"},
      {"measurement": "guanine nucleotide exchange activity towards His-Rac1 of the pY2 oligopeptide precipitate from lysate supplemented with PI 3,4,5-P3 (32P label retained on filters)", "setting": "[2]", "value": 31700, "unit": "CPM"},
      {"measurement": "guanine nucleotide exchange activity towards His-Cdc42 of the pY1 oligopeptide precipitate from lysate supplemented with PI 3,4,5-P3 (32P label retained on filters)", "setting": "[1]", "value": 28700, "unit": "CPM"},
      {"measurement": "guanine nucleotide exchange activity towards His-Rac1 of the pY1 oligopeptide precipitate from lysate supplemented with PI 3,4,5-P3 (32P label retained on filters)", "setting": "[1]", "value": 51200, "unit": "CPM"}
    ]}
  ]
}
